In general, Kd refers to the equilibrium constant for the complex coming apart. A lower Kd goes with tighter binding.

These results are taken from patent US20190077864A1 (ONCOMED PHARMACEUTICALS, published 2019).

The target of assay [1] is T1, hTIGIT variant 3 (Q62H and Q64H)-CD4TM-GFP on HEK-293T cells (human, UniProt Q495A1 22-141).
T1 construct: not shown: transmembrane domain of CD4 (CD4TM); GFP tag
T1 chain: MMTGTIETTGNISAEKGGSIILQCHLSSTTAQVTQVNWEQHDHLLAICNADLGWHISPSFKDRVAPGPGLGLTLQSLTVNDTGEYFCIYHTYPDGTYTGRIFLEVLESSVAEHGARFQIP
Kind of assay: FACS on transfected HEK-293T cells. As for the experimental part:
(§1) To identify the binding epitope of antibody 313M32, an analysis was performed with a series of variants of human TIGIT with specific amino acid substitutions. The variants were based upon the differences between human TIGIT and cynomolgus TIGIT amino acid sequences, SEQ ID NO:4 and SEQ ID NO:77, respectively. The amino acid sequence of rhesus monkey TIGIT (SEQ ID NO:78) is identical to cynomolgus TIGIT (FIG. 21). The amino acid variants introduce amino acid residues present in cynomolgus monkey TIGIT into corresponding positions in human TIGIT. The hTIGIT variants generated have substitutions at (1) E36K and […]; (2) T51M, (3) Q62H and Q64H, (4) D72E, (5) S78Y and S80A, (6) V100M, (7) I109T and T119R, and (8) G135S. Each variant hTIGIT was generated using the hTIGIT (aa 22-141)-CD4TM-GFP construct described in Example 15.
(§2) The TIGIT variants were evaluated by FACS with anti-hTIGIT antibodies. […] After 16 hours, transfected cells were suspended in ice cold HBSS containing 2% FBS and incubated on ice with 1 μg/ml anti-hTIGIT antibodies 313R12, 313M32, or 313M34 for 30 minutes. 313M34 is an anti-hTIGIT antibody that was generated based upon the amino acid sequences of the 10A7 antibody described in U.S. Publication 2009/0258013. […] The cells were analyzed on a FACSCanto instrument (BD Biosciences) and the data was processed using FlowJo software.

Assay [2] deals with T2, hTIGIT variant 7 (I109T and T119R)-CD4TM-GFP on HEK-293T cells (human, UniProt Q495A1 22-141).
T2 construct: not shown: transmembrane domain of CD4 (CD4TM); GFP tag
T2 chain: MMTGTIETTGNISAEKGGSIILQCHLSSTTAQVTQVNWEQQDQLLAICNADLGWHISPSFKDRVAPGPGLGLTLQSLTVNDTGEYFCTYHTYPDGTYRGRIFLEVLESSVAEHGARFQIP
Kind of assay: FACS on transfected HEK-293T cells. As for the experimental part: as §1, §2

The target in assay [3] is T3, human TIGIT (human, UniProt Q495A1 22-141, limits assumed).
T3 construct: also called hTIGIT
T3 sequence: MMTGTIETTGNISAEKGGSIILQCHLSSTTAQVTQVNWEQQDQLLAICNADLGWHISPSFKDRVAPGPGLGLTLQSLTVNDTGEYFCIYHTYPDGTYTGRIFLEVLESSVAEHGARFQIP
The experiment in a line: Biacore, preliminary; format not stated.

Assay [4] addresses T4, hTIGIT variant 1 (E36K and I41V)-CD4TM-GFP on HEK-293T cells (human, UniProt Q495A1 22-141).
T4 construct: read as I41V; not shown: transmembrane domain of CD4 (CD4TM); GFP tag
T4 chain: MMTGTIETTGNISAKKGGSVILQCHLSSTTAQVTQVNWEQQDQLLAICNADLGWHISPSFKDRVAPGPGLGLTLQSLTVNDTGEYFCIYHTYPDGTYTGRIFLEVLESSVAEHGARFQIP
Kind of assay: FACS, 1 µg/ml antibody on transfected HEK-293T cells. As for the experimental part: as §1
(§3) The TIGIT variants were evaluated by FACS with anti-hTIGIT antibodies. […] After 16 hours, transfected cells were suspended in ice cold HBSS containing 2% FBS and incubated on ice with 1 μg/ml anti-hTIGIT antibodies 313R12, 313M32, or 313M34 for 30 minutes. 313M34 is an anti-hTIGIT antibody that was generated based upon the amino acid sequences of the 10A7 antibody described in U.S. Publication 2009/0258013. The 10A7 antibody is an anti-mouse TIGIT antibody that binds both mouse TIGIT and human TIGIT. A second incubation with 50 μl PE-conjugated anti-Fc secondary antibody was performed to detect cells bound by the antibodies. The cells were analyzed on a FACSCanto instrument (BD Biosciences) and the data was processed using FlowJo software.
In general terms: A flow cytometer gives signals particle by particle.

Assay [5] has as its target T5, hTIGIT variant 2 (T51M)-CD4TM-GFP on HEK-293T cells (human, UniProt Q495A1 22-141).
T5 construct: not shown: transmembrane domain of CD4 (CD4TM); GFP tag
T5 chain: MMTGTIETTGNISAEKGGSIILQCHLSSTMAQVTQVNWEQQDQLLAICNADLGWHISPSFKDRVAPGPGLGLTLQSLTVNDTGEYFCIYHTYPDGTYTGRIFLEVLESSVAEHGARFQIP
The description is as above. As for the experimental part:
as §1, §3

Assay [6] concerns the target T6, hTIGIT variant 4 (D72E)-CD4TM-GFP on HEK-293T cells (human, UniProt Q495A1 22-141).
T6 construct: not shown: transmembrane domain of CD4 (CD4TM); GFP tag
T6 chain: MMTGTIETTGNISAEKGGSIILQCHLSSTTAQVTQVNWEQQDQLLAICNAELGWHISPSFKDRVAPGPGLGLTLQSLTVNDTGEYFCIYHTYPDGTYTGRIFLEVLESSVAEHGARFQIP
Described as above. As for the experimental part: as §1, §3

Assay [7] deals with T7, hTIGIT variant 5 (S78Y and S80A)-CD4TM-GFP on HEK-293T cells (human, UniProt Q495A1 22-141).
T7 construct: not shown: transmembrane domain of CD4 (CD4TM); GFP tag
T7 chain: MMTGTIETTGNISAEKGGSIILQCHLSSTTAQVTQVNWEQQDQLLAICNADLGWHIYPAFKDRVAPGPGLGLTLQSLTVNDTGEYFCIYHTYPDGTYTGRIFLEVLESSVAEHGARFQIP
The description is as above. As for the experimental part:
as §1, §3

Assay [8] has as its target T8, hTIGIT variant 6 (V100M)-CD4TM-GFP on HEK-293T cells (human, UniProt Q495A1 22-141).
T8 construct: not shown: transmembrane domain of CD4 (CD4TM); GFP tag
T8 chain: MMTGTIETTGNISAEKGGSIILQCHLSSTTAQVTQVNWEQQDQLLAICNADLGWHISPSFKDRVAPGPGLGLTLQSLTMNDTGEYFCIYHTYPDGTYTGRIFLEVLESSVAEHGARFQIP
Described as above. As for the experimental part:
as §1, §3

Assay [9] has as its target T9, hTIGIT variant 8 (G135S)-CD4TM-GFP on HEK-293T cells (human, UniProt Q495A1 22-141).
T9 construct: not shown: transmembrane domain of CD4 (CD4TM); GFP tag
T9 chain: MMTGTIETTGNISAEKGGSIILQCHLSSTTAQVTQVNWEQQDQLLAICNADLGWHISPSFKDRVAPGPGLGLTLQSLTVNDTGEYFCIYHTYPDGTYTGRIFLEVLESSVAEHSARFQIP
The description is as above. As for the experimental part:
as §1, §3

Assay [10] has as its target T10, hTIGIT-CD4TM-GFP on HEK-293T cells (human, UniProt Q495A1 22-141).
T10 construct: Cell surface fusion protein, transiently expressed; also called human TIGIT ECD-CD4TM-GFP; FLAG-hTIGIT-CD4TM-GFP; not shown: transmembrane domain of CD4 (CD4TM); C-terminal GFP protein tag
T10 sequence: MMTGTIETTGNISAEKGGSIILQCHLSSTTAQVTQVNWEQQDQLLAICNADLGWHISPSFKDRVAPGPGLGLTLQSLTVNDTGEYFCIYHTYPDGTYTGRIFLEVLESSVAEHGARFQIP
Kind of assay: inferred from two blocking studies of hPVR-rbFc binding to hTIGIT cells, flow cytometry. On the procedure: After 16 hours, transfected cells were suspended in ice cold HBSS containing 2% FBS and heparin and incubated on ice with 0.5 μg/ml hPVR-rbFc fusion protein in the presence of anti-TIGIT antibodies 313R19, 313M26, or 313M32 for 60 minutes. Antibody 313R19 is a humanized version of a rabbit anti-TIGIT antibody. 313R19 binds mouse and human TIGIT. The antibodies were tested at concentrations of 10, 2, and 0.4 ug/ml. Cells were incubated without antibody or without hPVR-rbFc as controls. A second incubation with 100 μl PE-conjugated anti-rabbit Fc secondary antibody was performed to detect cells bound by the hPVR-rbFc fusion protein. The cells were analyzed on a FACSCanto instrument (BD Biosciences) and the data was processed using FlowJo software.
All three anti-TIGIT antibodies blocked binding of hPVR-rbFc to hTIGIT at the highest concentration of 10 μg/ml.

The target in assay [11] is T11, mouse TIGIT ECD-CD4TM-GFP on HEK-293T cells (mouse, UniProt P86176 29-148).
T11 construct: The legend names the construct as mouse TIGIT ECD; also called mouse TIGIT-CD4TM-GFP; mTIGIT-CD4TM-GFP; not shown: transmembrane domain of CD4 (CD4TM); GFP (green fluorescent protein)
T11 sequence: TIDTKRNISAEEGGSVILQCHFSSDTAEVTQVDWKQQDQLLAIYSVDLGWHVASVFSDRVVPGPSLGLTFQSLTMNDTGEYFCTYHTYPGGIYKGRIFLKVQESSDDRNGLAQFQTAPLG
Kind of assay: flow cytometry, 1 µg/ml antibody on HEK-293T cells transiently transfected with mTIGIT-CD4TM-GFP, PE-conjugated anti-Fc secondary. On the procedure: as §3

B1: anti-TIGIT antibody 313M32 (antibody, human IgG1, kappa, V domains shown)
VH: QVQLQESGPGLVKPSETLSLTCAVSGYSITSDYAWNWIRQPPGKGLEWIGYISYSGSTSYNPSLRSRVTISRDTSKNQFFLKLSSVTAADTAVYYCARRQVGLGFAYWGQGTLVTVSS
VL: DIQMTQSPSSLSASVGDRVTITCKASQDVSTAVAWYQQKPGKAPKLLIYSASYRYTGVPSRFSGSGSGTDFTFTISSLQPEDIATYYCQQHYSTPWTFGQGTKVEIKR
notes: Humanized version of 313M26, human IgG1
With B1, the binding result in assay [1] is reported as “no binding (tested: 1 µg/ml)”; in assay [2] it was “no binding (tested: 1 µg/ml)”; in [4] it was “binds”; in assay [5], “binds”; in assay [6], “binds”; in assay [7], “binds”. Further, the binding result is “binds” in assay [8], “binds” in assay [9] and “no binding (tested: 1 µg/ml)” in assay [11]. Moreover, the Kd in [3] amounted to 0.4 nM. For the same molecule, the “fold higher affinity than antibody 313R19” value in assay [10] is approximately 5 fold.
